19 sequences from the DeepSol protein solubility set can be followed below.

The nature of this data set: soluble on expression in E. coli; label from the status in PepcDB or PDB records.
Take “MGSDKIHHHHHHMERRTILVTGASGFVGGALCRQLATLGSFAIRAASRDLGGASVAGIQAVTVADLSATTDWARALSGVDLVVHAAARVHVMKETASDSLAEFRRVNVDGTLNLARQAAAAGVRRFIFISSIKVNGESSQPGQPLRADDSPAPQDAYGVSKHEAEQGLRQLAAATGMEVVVIRPVLVYGPGVKANFHSMMRWLQRGVPLPFGAVCNRRSLVSLANLVDLVVTCIDHPRAANQTFLASDGDDVSLTQLLRALGLALGRPARLLPVPAGLLRGAVLLIGRRDLAQRLFGTLQVDIEKNRQLLGWYPPCTLEQGLNMTARSFLGARRP”: the “soluble on expression in E. coli” value is “not soluble”.
Next, “GMADIDQASKTEMEAAAFRHLLRHLDEHKDVQNIDLMIQADFCRNCLAKWLMEAATEQGVELDYDGAREYVYGMPFAEWKTLYQKPASEAQLAAFEAKQAARKR”: “soluble”; “MSLTADTSLSSIQEAINVVQQYNATDPVRLKLFHTPRMVSQGAHFAFCLPTKKPHYKPLLLSQNALDEFNLVQDQDLEKILSGEKVYYSDSIFPYSTVYSGFQFGSFAAQLGDGRVVNLFDLKDKCSGQWQTFQLKGAGMTPFSRFADGKAVLRSSIREFIMSEALHSIGIPSTRAMQLTLLPGTKAQRRNQEPCAVVCRFAPSWIRLGNFNLFRWRHDLKGLIQLSDYCIEELFAGGTQFEGKPDFNIFKRDFFPDTETKIDEQVEKDETEVSTMTGDNISTLSKYDEFFRHVVSLNANTVAHWQAYGFANGVLNTDNTSIMGLTIDYGPFAFLDKFEPSFTPNHDDTAKRYSFANQPSIIWWNLQQFAKDLACLLGPEARDLELLLKGELNSVDDALEKTMIERVQKLVELSANEYKYVFTTRYAQIMSQRLGVDLDLEKCMSSTNLKDIEHAAEKAKEFCDVIVEPLLDILQATKVDYNNFFIHLQNYKGPFFIKDKSDTATLFGAFDEEYLGMFFNSKQLQQMAETEEAFAAGEKVFDANGELRLLNEKLQEIRNWTQDYLTLVPPTETAARASLAKKANPLFVPRSWVLEEVVDDLMYSQRDGLQDPSSELDTSALKKLYLMSVNPYDRTKWDVTLRPELETKWADLSHQDDAKFMMQASCSSEGHHHHHH”: “soluble”; “MVVNVFISAVTTDTLSRKEAVAWVNNLLKSHFTKVEEMASGAAYCQLTHLLFNAINLKKVKFNPRSEPDVLNNWKVLTTTWKDLGIDKPVDVEKMKKAKFQDNMEFLQWFYKFYNANLTTEPEEYDAVGARFGEDLPALKGSTGSRPVAAPARPVAAAPPKPRPAAPAVAAPAVKASVPPTVRNGTRPAPATSAGTRRADPSASEELLKQEIEKHKAASDEWETTAKEMETEREYYYSILQRVESLANEAEESGSSTVDVAALKTILYAGNEDTEQVDEIENEHLVESLQANLDDTETF”: “soluble”.
Next, “MPNTTNKDYTKYSQRQLFSFLNSIKTKQKRALEKLKEIQAQKQRIKKALQFKALNLTENGYTIEEEREILARAKDTKNRLCFKSIEDFKKHCENL”: “not soluble”; “MFDPKMLSVEFRNGITDEKPIEGRKYTLTHNDDTGELFLTVALAYAYDKINSSARDEVFGVWKRGNNRFILKIYLYVDGNQGREEAIKRDRIFRKELPLALAAIAYGDRKFLDDNDDLLNSNIIVRFISAYEELNKIENYGTLKDYLEHHHHHH”: “soluble”.
As for “MTKFIGCIDLHNGEVKQIVGGTLTSKKEDVPKTNFVSQHPSSYYAKLYKDRDVQGCHVIKLGPNNDDAAREALQESPQFLQVGGGINDTNCLEWLKWASKVIVTSWLFTKEGHFQLKRLERLTELCGKDRIVVDLSCRKTQDGRWIVAMNKWQTLTDLELNADTFRELRKYTNEFLIHAADVEGLCGGIDELLVSKLFEWTKDYDDLKIVYAGGAKSVDDLKLVDELSHGKVDLTFGSSLDIFGGNLVKFEDCCRWNEKQG”, the “soluble on expression in E. coli” value was “soluble”.
Next, “MIRIELPTLIAKLNAQSKLALEQAASLCIERQHPEVTLEYYLDVLLDNPLSDVRLVLKQAGLEVDQVKQAIASTYSREQVLDTYPAFSPLLVELLQEAWLLSSTELEQAELRSGAIFLAALTRADRYLSFKLISLFEGINRENLKKHFAMILSDSAETAVAKTDKNAANPLQAAAETPLGRFCTNVTEQARNGELDPVLSRENELNLMVDILCRRRKNNPIVVGEAGVGKSAMIEGLALRVVAGKVPTQLQNVELYSLDLGRLQAGASVKGEFEKRLKGVIDAIKQSPKPIILFIDEAHTLIGSGNQEGGSDAANLLKPALARGELSTVAATTWKEYKKYFEKDPALTRRFQLVKLDEPTIDQAVDILRGLNSVYEKAHNVLITDDALKAAAELSARYISGRQLPDKAIDVLDTACARIAINMTTPPKRLALLETLCHQRQLEIDMLERAQFLGQEVDSERLDVLRNQELADEAEKAALTQSWQQQKSLVESIIALRAELMELSQAQEQDPDHLLVVRTALQEQYQALDAIDHAERLMHPQVDADQIAEVIADWTGVPVDQMNTDELHKITHLTSILGQAIKGQETAIERIHRHLLTARADLRRPGRPKGAFLLVGPSGVGKTETVVQLAEQLYGGKQFLTTINMSEYQEKHTVSRLIGSPPGYVGYGEGGVLTEAIRKMPYSVVLLDEVEKAHPEVLNIFYQGFDKGEIADGEGRVIDCQNIVFFLTSNLGYQTIVDYADEPAKLDEALYPELAAFFKPALLARMEVIPYLPLGKEVLAQIVRGKLARLEKLFKTRYNAEVVIEESLIDEILSRATRSENGARMLEAIIEGQLLPPVSLALLNKLAERAPVERIRLAAEAGEFIGEVA”: “not soluble”.
Consider “MGSSHHHHHHSSGLVPRGSHMKLNRVVVTGYGVTSPIGNTPEEFWNSLATGKIGIGGITKFDHSDFDVHNAAEIQDFPFDKYFVKKDTNRFDNYSLYALYAAQEAVNHANLDVEALNRDRFGVIVASGIGGIKEIEDQVLRLHEKGPKRVKPMTLPKALPNMASGNVAMRFGANGVCKSINTACSSSNDAIGDAFRSIKFGFQDVMLVGGTEASITPFAIAGFQALTALSTTEDPTRASIPFDKDRNGFVMGEGSGMLVLESLEHAEKRGATILAEVVGYGNTCDAYHMTSPHPEGQGAIKAIKLALEEAEISPEQVAYVNAAGTSTPANEKGESGAIVAVLGKEVPVSSTKSFTGHLLGAAGAVEAIVTIEAMRHNFVPMTAGTSEVSDYIEANVVYAQGLEKEIPYAISNTFGFGGHNAVLAFKRWENR”, for which the “soluble on expression in E. coli” value is on record as “soluble”.
Next, “MGSDKIHHHHHHMMIQYPKLTISDRLNQHRERLPLADLQETFKESWTVNEKWQVTFAITDSLAYEQAIKLLDVQNIVHYDGQSYVIIQCTKTVSGGVSVYEVTASHLFYRLANNARQNNVKTGTLTYGLSEAVNFMLDNNDQGLTAKFIGDFPRIKIENLGNSSFNKFLQDYTSKFDASYVIDNQQIIFYSATYLKHQPVIDTLFYQHDVENVKLSLDTTSLANEVRCLGKPIDKSSGNNDSQTKYQVDFTYRDDASIQKWGLQRGDPLSDERFTDQGSMTEYARQTVQAQPIATLTTTAWNVTIKQCETVKLVMPNLDWQTTVALNGYERNPFNQFSLPTITFDNASLAVNDINVAMFKHITNAHNHVGKTMVQLMAALGDIQNGDLITDEDTIDKLNELGGIS”: “not soluble”; “MAFLGYGAAAALGGALVYANLPTYLTIGAVAPTFAHLAAAKLVPIRGGPKEKEVVERNEQFTADSLFKKGPIMVMAVRRPGCMLCRREAAELHTLLPLLKEKGIELAAVVHETRGANEFKSWFSGGDVYLDTDRTFYGPNERWLPVWMGFLRFGTYSNVYKAKKAKVEGNMEGEGRLLGGVYLIANNDIVFTHLEKEWGDAADIKEVRAAVEKFSEKSK”: “not soluble”.
Next, “MPNYLENVKDAAAIIASARRIMVVGCSGGGKSTLSQKLAAAFGLRYISMDRDIFWLPGWQLRPREEQRQRIAAVVTEDRWLMDGSNPSSFDLRLPRTDIVLWVRMPRWLCLWGAVSRIVKGYGKARPEMAAGCPERIDLDFLRYIWNFERRHTPVFEESFALHGPNVPIFQLKSRKQIRRLLDLLVVEDLEHHHHHH”: “soluble”; “MGHHHHHHSHMSDWEDDDFEPEVSTFKRAEPAPEPVKIVDAPPPPQKAAPAAPKTLKAAPTFAMESLGRELTSAEKEAIQKKNDLALARDLFGDDDSAEATDEAKTYANIMSKADFEYWGERVGGFLASRSKASCYGDMIGKLLTSVTDEMTPAEILKMVTFLQQISAAKKTAEKTKAKATTAAKPAAAANKKNAKATLKVTKGNDSMYDDYGDDQDDYDDY”: “soluble”.
As to “MRRICKDERRIQSVNSSEEIAVSGMSAGRSAMRMGPAELVQAAAMARRFYLEGKSKIQIAEEFGVSRFKVARVLETALERDLVRIEIRVPAELDAERSDALRARYGLRHAVVVESPADAEETPDPENLGEVAADLLGELVNEGDVLGLAWGRSTIHMAAALDRLPPCTVVQLTGVYDAGTAERGSVEAVRRAAQVSGGDAHPIYAPMLLPDAATAQALRHQTGIARAFEYFDKVTVACVSIGSWEPGISTVHDMLSDEERAHYASLGVAAEMSAHLFDAEGRRVGRDLGERCITVKADQLRRIPEVVAIAGGQRKAAAIDAVLRSGLVTSLVTDTSAADYLMTVGSAPKSTLNRTDPDGI”, the “soluble on expression in E. coli” value is “not soluble”.
Under “MGSDKIHHHHHHVNETSHSLEYEAFIEEARHVVEARFGHTGTTGEVPRLLLRHGTVRMARDMARGIRPCQVKMPDVSGLQYGDFAPLDPLALLRDEVKLPSLPAVVAELRDVLSSPNSSAADVARVISRDAGLSAFLLRMVNSAFYSFPSRIDTVSRAVALVGRQQLSTLALGVMVIGAMRDLPVAHLDLSLFWQHSIACAVVAGQLAEAAGMEEPERFFVAGLLHDIGRLAVFSLLPDRAAAILSMCSDYGMPAQDAELRVLGFDHATLGGMLLRKWNFPMSLVFSTLHHHVPERSVRHVEPAVVHVADVVVKGLGIGVSGMHQLPGFKEDAWQRLGVSVAVLEQLIDGLEERLRDTSSLLLE” stands “not soluble”; under “MGSDKIHHHHHHMKISVLGAGCIGGSIALKLKEKHHVTAFDRDEETMKALEENGIETVSKESDLYDTDLLVLALPMSVEERFLKETDFSGKILDVASVKTPFMEIARERGLNFTGGHPMAGNERKGKSGWDREMFDGKIFFLCSLDGKEDGMIENIVKDLGARPLWIDYRIHDEIVAAVSHVQYLISLSARYVGKPFEEYAGPGYLSNTRLSKQNMEMALDMIRYNKENILKYLENARNFLNVLYHLTEKEDFENLKKVIREVIS”, “not soluble”; under “MEALILEPSLYTVKAILILDNDGDRLFAKYYDDTYPSVKEQKAFEKNIFNKTHRTDSEIALLEGLTVVYKSSIDLYFYVIGSSYENELMLMAVLNCLFDSLSQMLRKNVEKRALLENMEGLFLAVDEIVDGGVILESDPQQVVHRVALRGEDVPLTEQTVSQVLQSAKEQIKWSLLR”, “not soluble”.
For “MKIIKGAFPVLITPMDEFQEINWNGVKQNVNYFIEQKVAGIIINGSTGEFVSLSKEERFKMVETVLKEVNGRIPVIVGTAAETTKETIEFTKHAETHGADCALIINSYYCKPKEEEIYFHFKEISNAVNIPIMLYNNPFTSGVDMSTELMLRIGKDCENVTHIKESSGDIRKARDLVRQGEGAFQVFCGSEDLVMESYLVGATGWVSVAGNVVPGLVTKMYEHFQNGELEKAWEINDAILPLCEFLEGSGKYVQIVKRSMELQGQAGGPSRYPRLGLTEEEDQKLQAIISKIAAHAAV”, the “soluble on expression in E. coli” value is “not soluble”.
Next, “MNKKHVVILGAGYAGLKTLRELQKGAKDVEITLVDRNNYHYEATDLHEVAAGTQPAEKITYNIMDVVDEKMTTFIQGTVKTIDAATQTVALEDGQTINYDYLVVSLGFESESFGIPGVQEHALQMVDVKTALNVYEHIQEQMRQYKATQNEEFLKIVVCGAGFTGIELLGSLVENKPKFAEIAGVSADQIQIYCVEAVTRLLPMFNEKLANYGVQLLKDSAIHLLLGKPIKEIKPGAVVYQDNEAGDLAELSAKTIIWTTGVSGSHVVGDSGFEARRGRVMVQPDLTDANHSNVYIIGDCSAVMDTETNRPYPTTAQIALKMGAHAAKNIQAQLKGEATKPFSFKSQGSVCSVGNTRALGIVGKTDIKGYPASFMKKIIMNKALFETGGTKEMMAKGRFDLYH”: “not soluble”.
